In patent publication US20160024219A1 (Sanofi, published 2016):
Values joined by “and” are separate entries in the source; they are usually repeats but may differ in a detail not shown here. Equal values may be shown once.

Columns and labels:
CD52 peptide #741 [1] = target: T1, CD52 peptide #741; assay: BIACORE (SPR), CD52 peptide #741 chip, apparent KD; antibody after 4 weeks at 37C, 3 component buffer pH 7.5
T1 construct: also called CD52 peptide #741 chip
Description: (§1) Aliquots were taken at Week 2 and Week 4 (T2 and T4) to assess their affinity to CD52 peptide by BIACORE™.

[2] = target: T2, CD52 peptide mimotope (CGQNDTSQTSSPSAD); assay: BIACORE (SPR), CD52 peptide, purified antibody; concentrations used for fit 7.5nM - 0.2nM
T2 construct: Immobilized at a low level on a CM5 chip via thiol chemistry using the N-terminal Cys; also called CD52 peptide chip
T2 peptide: CGQNDTSQTSSPSAD

CD52 peptide #741 [3] = target: T1, CD52 peptide #741; assay: BIACORE (SPR), CD52 peptide #741 chip, preliminary constant; antibody after 4 weeks at 45C, pH 7.2 in PBS
Protocol: (§2) The proteins (85 μg) were diluted in PBS, pH 7.2, to 0.4 mg/ml, and incubated at 45° C. for 4 weeks. Their binding affinity to CD52 peptide was measured on BIACORE™.

CD52 peptide #741 [4] = target: T1, CD52 peptide #741; assay: BIACORE (SPR), CD52 peptide #741 chip, apparent KD; table 'after 37C incubation', T0, 3 component buffer pH 7.5
Description: as §1

[5] = target: T2, CD52 peptide mimotope (CGQNDTSQTSSPSAD); assay: BIACORE, CD52 peptide on CM5 chip; antibody from HEK293
Protocol: (§3) Several concentrations of anti-CD52 antibody made in HBS-EP running buffer (1 to 20 nM) were injected over the surface to monitor the binding. Kinetic analysis was performed using Scrubber2 software.

[6] = target: T2, CD52 peptide mimotope (CGQNDTSQTSSPSAD); assay: BIACORE, CD52 peptide on CM5 chip; antibody from CHO; CHO-produced Ab26
Protocol: as §3

CD52 peptide #741 [7] = target: T1, CD52 peptide #741; assay: BIACORE (SPR), CD52 peptide #741 chip, apparent KD; antibody after 2 weeks at 45C, 3 component buffer (graph title: 45C pH7.4)
Description: as §1

[8] = target: T2, CD52 peptide mimotope (CGQNDTSQTSSPSAD); assay: BIACORE (SPR), CD52 peptide, antibody purified from CHO cells; inset table
Protocol: as §3

CD52 peptide #741 [9] = target: T1, CD52 peptide #741; assay: BIACORE (SPR), CD52 peptide #741 chip, apparent KD; antibody after 2 weeks at 37C, 3 component buffer pH 7.5
Description: as §1

CD52 peptide #741 [10] = target: T1, CD52 peptide #741; assay: BIACORE (SPR), CD52 peptide #741 chip, preliminary constant; antibody after 2 weeks at 45C, pH 7.2 in PBS
Protocol: as §2

CD52 peptide #741 [11] = target: T1, CD52 peptide #741; assay: BIACORE (SPR), CD52 peptide #741 chip, preliminary constant; antibody at week 0 (before incubation)
Protocol: as §2

B1: Ab26 (antibody, human IgG1, kappa, V domains shown)
VH: EVQLVESGGGLVQPGGSLRLSCAASGFPFSNYWMNWVRQAPGKGLEWVGQIRLKSNNYATHYAESVKGRFTISRDDSKNSLYLQMNSLKTEDTAVYYCTPIDYWGQGTTVTVSS
VL: DIVMTQTPLSLSVTPGQPASISCKSSQSLLYSNGKTYLNWVLQKPGQSPQRLIYLVSKLDSGVPDRFSGSGSGTDFTLKISRVEAEDVGVYYCVQGSHFHTFGQGTKLEIKR
notes: Humanized anti-human CD52 monoclonal antibody; made in HEK293 and in CHO cells; also called CTL; CTL1
With B1 the Kd (CD52 peptide #741 [1]) was 17.4 nM and 18.3 nM, the Kd [2] was 2.4 nM and 2.8 nM and the Kd (CD52 peptide #741 [3]) was 25.4 nM. For the same binder, the Kd (CD52 peptide #741 [4]) was 4.3 nM and 4.2 nM, the Kd [5] was 1.7 nM and 2.2 nM and the Kd [6] was 2.6 nM. The Kd (CD52 peptide #741 [7]) was 28 nM, the Kd [8] was 2.61 nM and the Kd (CD52 peptide #741 [9]) was 10 nM and 8.9 nM. It also gave a Kd (CD52 peptide #741 [10]) of 13.4 nM and a Kd (CD52 peptide #741 [11]) of 3 nM.
